Results from patent US20110293610A1 (published 2011).

Legend:
[1] = target: T1, B Lymphocyte Stimulator, soluble form (human) (human, UniProt Q9Y275 134-285, biotinylated with NHS-biotin where used as biotinylated B Lymphocyte Stimulator); assay: purified scFv, inhibition of biotinylated BLyS binding to IM9 cells
T1 construct: Coated on plastic, captured on streptavidin plates, amine-coupled to a CM5 chip or free in solution, depending on the assay; also called BLyS; immobilized B Lymphocyte Stimulator
Procedure: To a separate 96-well plate, titrate test scFvs in MPBS, in triplicate, over a concentration range from 10 μg/ml down to 0.001 μg/ml were added. The final volume of test scFv in each well was 55 μl. […] Plates were then incubated at room temperature for 30 minutes.
Plates were washed three times in PBST and three times in PBS, tapped dry and 50 μl per well added of streptavidin-Delfia (Wallac) at 1:1000 dilution in the Manufacturer's assay buffer. The plates were then incubated at room temperature for 1 hour and washed six times in Delfia wash solution (Wallac). After tapping the plates dry, 100 μl per well of Delfia enhancement solution (Wallac) was added. The plates were gently tapped to encourage micelle formation, incubated at room temperature for 10 minutes, and fluorescence read on a Wallac 1420 workstation at […].

TRAIL = target: T2, TRAIL (human, UniProt P50591 114-281); assay: phage ELISA
T2 construct: also called TNF-related apoptosis inducing ligand
T2 sequence (P50591 114-281 limits assumed): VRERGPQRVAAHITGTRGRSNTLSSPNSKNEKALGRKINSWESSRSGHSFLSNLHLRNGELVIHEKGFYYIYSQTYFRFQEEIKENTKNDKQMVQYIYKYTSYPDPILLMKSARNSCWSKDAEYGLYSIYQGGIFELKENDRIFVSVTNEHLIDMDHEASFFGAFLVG

TNF-beta = target: T3, TNF-beta (human, UniProt P01374 35-205); assay: phage ELISA
T3 construct: also called TNFβ; Tumour Necrosis Factor-beta
T3 sequence (looked up): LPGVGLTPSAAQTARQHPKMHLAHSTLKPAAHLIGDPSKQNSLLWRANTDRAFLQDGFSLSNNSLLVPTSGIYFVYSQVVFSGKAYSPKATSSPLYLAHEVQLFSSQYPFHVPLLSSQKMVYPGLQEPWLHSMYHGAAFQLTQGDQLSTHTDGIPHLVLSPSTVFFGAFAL

Bovine serum albumin = target: T4, Bovine serum albumin (bovine, UniProt P02769 25-607); assay: phage ELISA
T4 construct: also called BSA
T4 sequence (P02769 25-607 limits assumed): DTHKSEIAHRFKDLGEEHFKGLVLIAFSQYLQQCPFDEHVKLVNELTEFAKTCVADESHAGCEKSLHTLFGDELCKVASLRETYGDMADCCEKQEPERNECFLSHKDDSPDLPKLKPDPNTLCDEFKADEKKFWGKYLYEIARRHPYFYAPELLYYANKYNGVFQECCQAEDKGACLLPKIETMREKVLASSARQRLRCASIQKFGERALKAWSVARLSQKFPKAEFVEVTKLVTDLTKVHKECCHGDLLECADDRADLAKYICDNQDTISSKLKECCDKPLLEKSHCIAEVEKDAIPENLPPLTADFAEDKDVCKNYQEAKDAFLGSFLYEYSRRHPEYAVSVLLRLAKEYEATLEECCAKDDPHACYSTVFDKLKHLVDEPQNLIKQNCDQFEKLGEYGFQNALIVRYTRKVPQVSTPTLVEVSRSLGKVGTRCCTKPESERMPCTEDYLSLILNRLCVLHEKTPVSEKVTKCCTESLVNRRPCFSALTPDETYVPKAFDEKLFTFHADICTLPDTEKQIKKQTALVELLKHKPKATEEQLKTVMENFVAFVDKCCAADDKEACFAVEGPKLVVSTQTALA

TNF-alpha = target: T5, TNF-alpha (human, UniProt P01375 77-233); assay: phage ELISA
T5 construct: also called TNFα; TNF-α
T5 sequence (P01375 77-233 limits assumed): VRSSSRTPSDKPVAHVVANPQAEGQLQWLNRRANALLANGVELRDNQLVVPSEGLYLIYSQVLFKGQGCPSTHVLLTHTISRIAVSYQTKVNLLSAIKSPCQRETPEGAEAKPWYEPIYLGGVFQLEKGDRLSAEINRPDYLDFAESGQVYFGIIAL

LIGHT = LIGHT (human, UniProt O43557 74-240, limits assumed); assay: phage ELISA
Sequence of LIGHT (O43557 74-240 limits assumed): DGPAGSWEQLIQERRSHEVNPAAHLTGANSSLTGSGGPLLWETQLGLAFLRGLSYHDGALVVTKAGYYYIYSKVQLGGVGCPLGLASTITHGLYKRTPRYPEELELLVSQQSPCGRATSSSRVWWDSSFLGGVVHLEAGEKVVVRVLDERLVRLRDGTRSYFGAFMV

Fas ligand = target: T6, Fas ligand (human, UniProt P48023 134-281, limits assumed); assay: phage ELISA
T6 sequence (looked up): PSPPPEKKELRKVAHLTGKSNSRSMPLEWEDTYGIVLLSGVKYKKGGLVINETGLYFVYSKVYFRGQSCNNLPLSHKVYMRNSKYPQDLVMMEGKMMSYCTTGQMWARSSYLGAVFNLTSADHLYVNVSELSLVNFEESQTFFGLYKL

[2] = target: T7, membrane-bound B Lymphocyte Stimulator on U937 plasma membrane preparations (human, UniProt Q9Y275 1-285); assay: phage ELISA
T7 construct: Natural protein in plasma membrane fractions of the human cell line U937 coated on ELISA plates; also called U937 plasma membranes; U937 membranes

[3] = target: T8, mouse B Lymphocyte Stimulator (mouse, UniProt Q9WU72 127-309, limits assumed); assay: phage ELISA
T8 construct: also called murine B Lymphocyte Stimulator; immobilized mouse B Lymphocyte Stimulator
T8 sequence (Q9WU72 127-309 limits assumed): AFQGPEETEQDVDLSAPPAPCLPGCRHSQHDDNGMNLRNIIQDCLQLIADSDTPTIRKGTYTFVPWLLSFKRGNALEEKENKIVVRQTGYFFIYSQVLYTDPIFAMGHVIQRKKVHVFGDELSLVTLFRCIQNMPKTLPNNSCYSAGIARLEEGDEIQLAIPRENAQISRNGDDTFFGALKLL

[4] = target: T1, B Lymphocyte Stimulator, soluble form …; assay: phage competition ELISA
[5] = target: T1, B Lymphocyte Stimulator, soluble form …; assay: phage competition ELISA on U937 plasma membranes
Procedure: (§1) For each test phage antibody, 3 aliquots of 20 μl 18% marvel/6×PBS were transferred into separate wells of a 96-well plate. The first aliquot was supplemented with His-tagged B Lymphocyte Stimulator to a final concentration of 60 μg/ml. The second aliquot was supplemented with soluble B Lymphocyte Stimulator to a final concentration of 60 μg/ml. The third aliquot was not supplemented with any competing antigen. One hundred μl of phage supernatant was then added to each aliquot and left to block at room temperature for 1 hour.
(§2) The antigen-coated plates were washed once with PBS before the addition of 200 μl/well 3% marvel/PBS. These plates were left to block at 37° C. for 1 hour and were then washed once with PBS. Duplicate samples of 50 μl pre-blocked phage (above) were added to the antigen-coated plates and left at room temperature for 1 hour. Plates were washed 3× with PBS/0.1% Tween 20, then 3× with PBS. Fifty μl/well mouse anti-M13 HRP (Pharmacia) at 1/5000 in 3% Marvel/PBS was added and left for 1 hour at room temperature. Plates were washed 3 times with PBS/0.1% Tween 20, then 3 times with PBS. Fifty […] HRP-labelled anti-mouse Envision polymer (DAKO) at 1/50 in 3% marvel/PBS was added and left for 1 hour at RT. Plates were washed 3 times with PBS/0.1% Tween 20, then 3 times with PBS. Next, 50 μl/well of TMB (Sigma) was added and plates left to develop for 30 to 60 minutes. When sufficient color has developed, 25 μl/well 0.5M H₂SO₄ was added to stop the reaction. The plates were read at 450 nm on a microtiter plate reader (Bio-Rad 3550).

[6] = target: T9, HIS-tagged B Lymphocyte Stimulator (human, UniProt Q9Y275 71-285); assay: phage competition ELISA on U937 plasma membranes
T9 construct: Expressed in E. coli from pQE9 and purified; also called histidine-tagged B Lymphocyte Stimulator; HIS-B Lymphocyte Stimulator; not shown: histidine tag of the pQE9 vector
Procedure: as §1, §2

B1: I074B12 (scFv)
scFv: EVQLVQSGAEVKKPGSSVKVSCRASGGSFNHAISWVRQAPGRGLEWMGGILPMYGTANYAQKFQGRVTITADKLTNTVYMDLSRLRYEDTAVYYCARELGLSIVGATTGALDMWGRGTLVTVSSGGGGSGGGGSGGGGSALSYELTQPPSASGTPGQRVTISCSGSTSNIGSNAVNWYRQLPGTAPKLLVYSNNQVPSGVPDRFSGSKSGTSASLAISGLQSEDEADYYCAAWDDSLSGYVFGTGTQLTVLS
[1]
  IC50: 13 nM
TRAIL
  binding result: no binding
TNF-beta
  binding result: no binding
Bovine serum albumin
  binding result: no binding
TNF-alpha
  binding result: no binding
LIGHT
  binding result: no binding

B2: I050A07 (scFv)
scFv: QVQLVQSGAEVKKPGASMKVSCKASAGRASAYGFAMHPIHWVRQAPGQGLEWMGWINGGTGNTKYSEKFLGRVTMTSDTSATTAYMELSSLRSEDTAVYYCARQDNDPLTGYKLGFDYWGKGTLVTVSSGGGGSGGGGSGGGGSAQSVVTQPPSVSGAPGQRVTISCTGSSTNVGAGYGVHWYQQFPETAPKLLIYGGSNRPSGVPDRFSGSQSGTSASLAITGLQAEDEADYYCQSYDTTLSGYVFGTGTKVTVLG
[1]
  IC50: 17.1 nM
TRAIL
  binding result: no binding
TNF-beta
  binding result: no binding
Fas ligand
  binding result: no binding

B3: I037E07 (scFv)
scFv: QVQLVQSGAEVKKPGASVKVSCKASGYTFTNYGITWVRQAPGQGLEWMGWISAYNGNRNYAQKLQGRVTMTTDTSTSTAYMELRSLRSDDTAVYYCVRDGIDILLVPAALMDVWGRGTMVTVSSGGGGSGGGGSGGGGSQSVLTQPASVSGSPGQSITISCTGTSSDVGGYNYVSWYQQHPGKAPKLMIYEGSKRPSGVSNRFSGSKSGNTASLTISGLQAEDEADYYCSSYTTRSTRVFGGGTKLTVLG
[2]
  binding result: binds
[3]
  binding result: no binding
TRAIL
  binding result: no binding
TNF-beta
  binding result: no binding
TNF-alpha
  binding result: no binding
Fas ligand
  binding result: no binding
[4]
  binding result: binds

B4: I037E12 (scFv)
scFv: EVQLVQSGAEVKKPGASVKVSCKASGYTFTNYGITWVRQAPGQGLEWMGWISAYNGNRNYAQKLQGRVTMTTDTSTSTAYMELRSLRSDDTAVYYCVRDGIDILLVPAALMDVWGKGTLVTVSSGGGGSGGGGSGGGGSQSVLTQPASVSGSPGQSITISCTGTSSDVGGYNYVSWYQQHPGKAPKLMIYEGNKRPSGVSNRFSGSKSGNTASLTISGLQAEDEADYYCSSYTTRSTRVFGGGTKLTVLG
[2]
  binding result: binds
[3]
  binding result: no binding
TRAIL
  binding result: no binding
TNF-beta
  binding result: no binding
TNF-alpha
  binding result: no binding
Fas ligand
  binding result: no binding
[4]
  binding result: binds

B5: I007F11 (scFv)
scFv: GVQLVQSGAEVKKPGASVKVSCKASGYTFTNYGITWVRQTPGQGLEWMGWISAYNGNRNYAQKLQGRVTMTTDTSTSTAYMELRSLRSDDTAVYYCVRDGIDILLVPAALMDVWGQGTMVTVSSGGGGSGGGGSGGGGSQSVLTQPASVSGSPGQSITISCTGTSSDVGGYNYVSWYQQHPGKAPKLMIYEGSKRPSGVSNRFSGSKSGNTASLTISGLQAEDEADYYCSSYTTRSTRVFGGGTKLTVLG
[1]
  IC50: 7.9 nM
[3]
  binding result: no binding
TRAIL
  binding result: no binding
TNF-beta
  binding result: no binding
TNF-alpha
  binding result: no binding
Fas ligand
  binding result: no binding

B6: I008C03 (scFv)
scFv: QMQLVRSGGGVVQPGRSLRLSCAASGFTFSSYGMHWVRQAPGKGLEWVSVTYSGGNTNYADSVRGRFTISRDNSKNTLYLQMNSLRAEDTAVYYCAREGSYDILTGYYVGVGRMDVWGKGTLVTVSSGGGGSGGGGSGGGGSSELTQDPAVSVALGQTVRITCQGDSLRSYYTNWFQQKPGQAPLLVVYAKNKRPSGIPDRFSGSSSGNTASLTITGAQAEDEADYYCNSRDSSGNHVVFGGGTKLTVLG
[2]
  binding result: binds
[3]
  binding result: no binding
TRAIL
  binding result: no binding
TNF-beta
  binding result: no binding
TNF-alpha
  binding result: no binding
Fas ligand
  binding result: no binding
[4]
  binding result: binds

B7: I079F08 (scFv)
scFv: QMQLVQSGGGVVQPGRSLRLSCAASGFTFSSYGMHWVRQAPGKGLEWVAVISYDGSIKYYADSVKGRFTISRDNSKNTLYLQMNSLRAEDTAVYYCARYYYHSSGSDAFDIWGQGTLVTVPSGGGGSGGGGSGGGGSQSVLTQPPSASGTPGQRVTISCSGSSSNIGSNTVNWYQRLPGAAPQLLIYNNNQRPSGVPDRFSGSKSGTSASLAISGLQSEDEADYYCAAWDDSLNGWVFGGGTKLTVLG
[5]
  binding result: no binding (tested: 60 µg/ml competing antigen)
[6]
  binding result: binds
[2]
  binding result: binds

B8: I016H07 (scFv)
scFv: GVQLVQSGAEVKKPGASVKVSCKASGYTFTHYAINWLRQAPGQRPEWMGTINTGNGNTKYSQNFQGRLTITRDTSASTVNMELSSLRSEDTAVYYCAGGYHDPLTSYNYNWFDPWGQGTMVTVSSGGGGSGGGGSGGGGSSELTQDPAVSVALGQTVRITCQGDSLRSYYTNWFQQKPGQAPLLVVYAKNKRPSGIPDRFSGSSSGNTASLTITGAQAEDEADYYCHSRDSSGNHVLFGGGTKLTVLG
[2]
  binding result: binds
[3]
  binding result: no binding
TRAIL
  binding result: no binding
TNF-beta
  binding result: no binding
TNF-alpha
  binding result: no binding
Fas ligand
  binding result: no binding
[4]
  binding result: binds

B9: I079B04 (scFv)
scFv: EVQLVESGGGLVQPGGSLRLSCAASGFTFSDYAMSWVRQAPGKGLEWVSAISGSGGSTSYADSVKGRFTISRDNSKNTLYLQMNSLRAEDTAVYYCASLLSDYWGRGTTVTVSSGGGGSGGGGSGGGGSQSVLTQPASVSGSPGQSITISCTGTSSDVGGYNYVSWYQQHPGKAPKLMIYEGSKRPSGVSYRFSGSKSGNTASLTISGLQAEDEADYYCSSYTTRSTRVFGGGTKLTVLG
[5]
  binding result: no binding (tested: 60 µg/ml competing antigen)
[6]
  binding result: binds
[2]
  binding result: binds
